Our source for the fold decrease of affinity against PT RBD and Kd values is paper PMC11620640.

A value given as a limit tells only on which side of the number the result lay.

In test [1] the target is raccoon dog ACE2 (rdACE2), peptidase domain (PD), wild type (raccoon dog) (UniProt B4XEP4). Briefly: SPR; BIAcore […], 25°C, PBST (0.005% Tween-20 in PBS); […], single-cycle; 1:1 Langmuir model; […]. A general note: Surface plasmon resonance follows binding to a sensor surface in real time, without labels.
For test [2] the target is unchanged. In words: SPR.
Test [3] addresses SARS-CoV-2 Alpha variant spike RBD (UniProt P0DTC2). In words: SPR.

In test [1], “SARS-CoV-2 Omicron XBB spike RBD (from UniProt P0DTC2 319-541) (domain or fragment)” registered a fold decrease of affinity against PT RBD of 10 fold. As to “SARS-CoV-2 Omicron BA.2 spike RBD (from UniProt P0DTC2 319-541) (domain or fragment)”, in test [2], the fold decrease of affinity against PT RBD is greater than 10 fold. What is called Kd is the free concentration of one partner at which half of the binding sites on the other are occupied at equilibrium, for simple one-to-one binding. In test [3], “raccoon dog ACE2 (rdACE2), peptidase domain (PD), wild type (from UniProt B4XEP4) E38D” came in with a dissociation constant Kd of 12.4 nM. The same measure, in the same setting: under “raccoon dog ACE2 (rdACE2), peptidase domain (PD), wild type (from UniProt B4XEP4) L24Q” stands 42.9 nM. On the same count and under the same terms, under “raccoon dog ACE2 (rdACE2), peptidase domain (PD), wild type (from UniProt B4XEP4) R353K” stands 59.4 nM. Take “SARS-CoV-2 PT RBD K417N variant (from UniProt P0DTC2 319-541) (domain or fragment)”: in test [2], the fold decrease of affinity against PT RBD is greater than 6 fold.
